Reference: paper doi:10.1101/2021.10.29.466147 (bioRxiv, 2021)
Blank lines part the entries; values can stand above or below the binder they belong to.

Key:
[1] = target: T1, Ycg1, HEAT-repeat subunit II of S. cerevisiae condensin (S. cerevisiae, UniProt Q06680 1-1035); test: co-purification
T1 sequence (looked up): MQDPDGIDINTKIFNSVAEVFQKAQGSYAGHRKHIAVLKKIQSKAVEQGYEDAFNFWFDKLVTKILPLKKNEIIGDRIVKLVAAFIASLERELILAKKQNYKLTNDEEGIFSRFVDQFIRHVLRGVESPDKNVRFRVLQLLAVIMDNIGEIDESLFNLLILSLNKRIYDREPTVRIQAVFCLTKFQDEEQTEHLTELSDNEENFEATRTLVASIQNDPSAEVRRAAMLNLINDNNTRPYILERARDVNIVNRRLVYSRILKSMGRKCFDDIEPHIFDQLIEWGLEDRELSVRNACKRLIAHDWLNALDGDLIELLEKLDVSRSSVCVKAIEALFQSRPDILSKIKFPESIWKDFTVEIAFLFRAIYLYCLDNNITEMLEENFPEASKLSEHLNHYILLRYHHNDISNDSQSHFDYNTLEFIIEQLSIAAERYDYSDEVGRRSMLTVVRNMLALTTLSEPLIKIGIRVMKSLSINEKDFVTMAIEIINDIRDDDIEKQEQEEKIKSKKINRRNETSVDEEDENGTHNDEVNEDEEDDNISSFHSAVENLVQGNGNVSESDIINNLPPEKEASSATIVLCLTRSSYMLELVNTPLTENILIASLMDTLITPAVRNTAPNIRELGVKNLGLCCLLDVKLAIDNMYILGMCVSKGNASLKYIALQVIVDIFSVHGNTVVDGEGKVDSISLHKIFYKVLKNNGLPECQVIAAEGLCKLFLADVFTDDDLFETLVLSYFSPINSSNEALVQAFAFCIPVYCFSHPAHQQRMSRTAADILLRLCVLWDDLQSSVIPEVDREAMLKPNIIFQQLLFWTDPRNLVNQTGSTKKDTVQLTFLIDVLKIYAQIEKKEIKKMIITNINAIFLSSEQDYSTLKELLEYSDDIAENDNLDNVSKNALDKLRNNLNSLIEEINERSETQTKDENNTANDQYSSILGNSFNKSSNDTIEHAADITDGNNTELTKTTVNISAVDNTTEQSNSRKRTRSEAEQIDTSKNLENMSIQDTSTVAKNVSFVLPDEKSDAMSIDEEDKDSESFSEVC

[2] = target: T2, Ycs4, HEAT-repeat subunit I of S. cerevisiae condensin (S. cerevisiae, UniProt Q06156 1-1176); test: cryo-EM structure
T2 sequence: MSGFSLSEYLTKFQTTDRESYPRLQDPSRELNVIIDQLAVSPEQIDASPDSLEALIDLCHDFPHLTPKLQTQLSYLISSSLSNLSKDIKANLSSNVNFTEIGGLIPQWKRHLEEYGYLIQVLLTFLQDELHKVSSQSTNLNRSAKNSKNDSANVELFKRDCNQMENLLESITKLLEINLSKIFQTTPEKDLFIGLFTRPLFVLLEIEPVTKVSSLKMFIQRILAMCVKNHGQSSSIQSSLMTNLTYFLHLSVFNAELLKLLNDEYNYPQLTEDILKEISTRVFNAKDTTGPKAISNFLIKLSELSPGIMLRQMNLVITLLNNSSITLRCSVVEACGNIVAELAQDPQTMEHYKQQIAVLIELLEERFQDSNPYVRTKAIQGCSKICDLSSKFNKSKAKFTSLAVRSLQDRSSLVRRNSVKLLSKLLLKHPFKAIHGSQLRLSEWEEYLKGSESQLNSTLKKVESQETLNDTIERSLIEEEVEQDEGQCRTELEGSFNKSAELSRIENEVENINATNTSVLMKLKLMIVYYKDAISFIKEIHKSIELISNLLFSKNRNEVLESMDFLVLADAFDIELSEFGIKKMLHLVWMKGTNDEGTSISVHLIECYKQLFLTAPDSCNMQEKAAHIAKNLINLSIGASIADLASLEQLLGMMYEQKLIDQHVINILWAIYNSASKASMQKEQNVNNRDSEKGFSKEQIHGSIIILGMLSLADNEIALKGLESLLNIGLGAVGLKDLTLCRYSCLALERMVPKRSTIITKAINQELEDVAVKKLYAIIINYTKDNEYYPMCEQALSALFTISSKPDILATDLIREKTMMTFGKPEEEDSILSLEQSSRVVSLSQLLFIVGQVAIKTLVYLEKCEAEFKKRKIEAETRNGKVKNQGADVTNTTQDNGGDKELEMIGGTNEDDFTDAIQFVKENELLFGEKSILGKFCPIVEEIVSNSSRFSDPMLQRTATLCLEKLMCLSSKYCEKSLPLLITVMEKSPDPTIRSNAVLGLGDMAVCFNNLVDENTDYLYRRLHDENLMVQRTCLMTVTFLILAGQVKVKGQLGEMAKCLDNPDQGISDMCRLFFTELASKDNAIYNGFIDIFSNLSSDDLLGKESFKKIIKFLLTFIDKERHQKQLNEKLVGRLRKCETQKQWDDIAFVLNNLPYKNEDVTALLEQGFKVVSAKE

[3] = target: condensin holo complex Smc2-Smc4-Brn1-Ycs4-Ycg1, Walker B EQ mutant (Saccharomyces cerevisiae, UniProt P38989;Q12267;P38170;Q06156;Q06680 1-1170;1-1418;1-754;1-1176;1-1035, E1113Q;E1352Q); test: cryo-EM
Sequence of condensin holo complex Smc2-Smc4-Brn1-Ycs4-Ycg1, Walker B EQ mutant (P38989 whole entry E1113Q, chain 1 of 2): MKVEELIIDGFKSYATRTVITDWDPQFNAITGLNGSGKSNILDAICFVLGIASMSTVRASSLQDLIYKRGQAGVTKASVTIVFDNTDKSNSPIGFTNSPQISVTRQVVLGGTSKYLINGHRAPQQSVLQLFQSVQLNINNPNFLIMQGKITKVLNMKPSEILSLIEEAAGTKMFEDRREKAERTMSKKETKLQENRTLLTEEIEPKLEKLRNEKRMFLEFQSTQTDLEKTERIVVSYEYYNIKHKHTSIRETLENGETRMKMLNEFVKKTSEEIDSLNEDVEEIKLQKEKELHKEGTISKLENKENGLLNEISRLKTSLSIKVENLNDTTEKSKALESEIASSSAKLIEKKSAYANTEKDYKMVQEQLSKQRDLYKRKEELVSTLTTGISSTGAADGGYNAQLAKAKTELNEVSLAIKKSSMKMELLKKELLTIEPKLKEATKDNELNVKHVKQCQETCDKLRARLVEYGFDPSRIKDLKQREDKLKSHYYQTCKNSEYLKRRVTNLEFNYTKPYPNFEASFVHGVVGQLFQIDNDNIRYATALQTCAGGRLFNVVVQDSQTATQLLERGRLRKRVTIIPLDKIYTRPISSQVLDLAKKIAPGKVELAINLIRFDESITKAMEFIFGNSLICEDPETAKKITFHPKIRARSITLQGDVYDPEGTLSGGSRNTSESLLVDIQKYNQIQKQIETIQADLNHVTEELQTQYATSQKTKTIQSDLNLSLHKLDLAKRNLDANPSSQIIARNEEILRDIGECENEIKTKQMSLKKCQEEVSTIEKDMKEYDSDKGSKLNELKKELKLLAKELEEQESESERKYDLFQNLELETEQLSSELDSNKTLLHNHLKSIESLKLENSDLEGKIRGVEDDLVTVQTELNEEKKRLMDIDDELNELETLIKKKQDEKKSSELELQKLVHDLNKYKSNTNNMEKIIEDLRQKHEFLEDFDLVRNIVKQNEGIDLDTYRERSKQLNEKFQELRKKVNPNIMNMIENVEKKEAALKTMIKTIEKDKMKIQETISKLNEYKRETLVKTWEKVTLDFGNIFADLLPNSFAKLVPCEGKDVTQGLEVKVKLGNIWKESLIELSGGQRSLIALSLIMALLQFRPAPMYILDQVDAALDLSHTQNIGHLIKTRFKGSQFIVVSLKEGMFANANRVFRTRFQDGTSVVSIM
Sequence of condensin holo complex Smc2-Smc4-Brn1-Ycs4-Ycg1, Walker B EQ mutant (Q12267 whole entry E1352Q, chain 2 of 2): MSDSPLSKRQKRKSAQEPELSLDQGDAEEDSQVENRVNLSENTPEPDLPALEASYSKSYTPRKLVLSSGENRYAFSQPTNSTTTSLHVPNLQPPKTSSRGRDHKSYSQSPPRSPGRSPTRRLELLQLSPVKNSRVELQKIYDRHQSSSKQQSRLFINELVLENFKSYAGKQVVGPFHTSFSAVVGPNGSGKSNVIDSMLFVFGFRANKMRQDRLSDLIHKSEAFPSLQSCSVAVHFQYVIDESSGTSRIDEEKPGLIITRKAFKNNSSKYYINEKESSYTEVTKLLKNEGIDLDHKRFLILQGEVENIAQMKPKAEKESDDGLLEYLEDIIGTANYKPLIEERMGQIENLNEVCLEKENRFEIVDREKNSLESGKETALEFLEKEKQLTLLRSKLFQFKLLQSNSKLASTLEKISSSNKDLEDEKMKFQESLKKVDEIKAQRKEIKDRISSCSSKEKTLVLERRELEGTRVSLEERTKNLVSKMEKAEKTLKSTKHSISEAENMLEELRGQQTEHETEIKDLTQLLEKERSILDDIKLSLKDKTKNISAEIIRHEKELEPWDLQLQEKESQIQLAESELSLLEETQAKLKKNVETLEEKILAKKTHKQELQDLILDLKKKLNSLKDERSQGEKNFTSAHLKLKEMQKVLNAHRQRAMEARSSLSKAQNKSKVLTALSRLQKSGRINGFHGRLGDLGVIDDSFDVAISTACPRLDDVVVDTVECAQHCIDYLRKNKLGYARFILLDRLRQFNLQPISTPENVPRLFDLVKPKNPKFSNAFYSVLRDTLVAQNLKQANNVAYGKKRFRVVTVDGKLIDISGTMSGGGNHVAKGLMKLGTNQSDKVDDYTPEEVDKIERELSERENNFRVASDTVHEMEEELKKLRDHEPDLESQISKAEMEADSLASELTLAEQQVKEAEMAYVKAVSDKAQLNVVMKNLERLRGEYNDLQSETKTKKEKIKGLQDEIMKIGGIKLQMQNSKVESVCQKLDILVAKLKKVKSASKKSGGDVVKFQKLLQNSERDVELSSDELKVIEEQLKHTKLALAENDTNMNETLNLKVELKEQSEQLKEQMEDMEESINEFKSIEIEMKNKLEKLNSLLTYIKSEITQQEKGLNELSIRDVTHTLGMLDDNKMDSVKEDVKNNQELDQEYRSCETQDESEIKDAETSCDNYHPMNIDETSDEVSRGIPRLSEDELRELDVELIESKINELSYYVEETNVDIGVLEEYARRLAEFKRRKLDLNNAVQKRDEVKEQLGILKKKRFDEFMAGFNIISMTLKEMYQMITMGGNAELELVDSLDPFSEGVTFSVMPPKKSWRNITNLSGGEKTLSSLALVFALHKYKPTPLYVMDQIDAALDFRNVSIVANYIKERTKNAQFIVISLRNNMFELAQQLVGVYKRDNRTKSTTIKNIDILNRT

- binding result [1]: binds
- binding result [2]: binds
B1: Brn1-His12-HA3, kleisin subunit of S. cerevisiae condensin (natural protein)
chain: MTTQLRYENNDDDERVEYNLFTNRSTMMANFEEWIKMATDNKINSRNSWNFALIDYFYDLDVLKDGENNINFQKASATLDGCIKIYSSRVDSVTTETGKLLSGLAQRKTNGASNGDDSNGGNGEGLGGDSDEANIEIDPLTGMPISNDPDVNNTRRRVYNRVLETTLVEFETIKMKELDQELIIDPLFKKALVDFDEGGAKSLLLNTLNIDNTARVIFDASIKDTQNVGQGKLQRKEEELIERDSLVDDENEPSQSLISTRNDSTVNDSVISAPSMEDEILSLGMDFIKFDQIAVCEISGSIEQLRNVVEDINQAKDFIENVNNRFDNFLTEEELQAAVPDNAEDDSDGFDMGMQQELCYPDENHDNTSHDEQDDDNVNSTTGSIFEKDLMAYFDENLNRNWRGREHWKVRNFKKANLVNKESDLLEETRTTIGDTTDKNTTDDKSMDTKKKHKQKKVLEIDFFKTDDSFEDKVFASKGRTKIDMPIKNRKNDTHYLLPDDFHFSTDRITRLFIKPGQKMSLFSHRKHTRGDVSSGLFEKSTVSANHSNNDIPTIADEHFWADNYERKEQEEKEKEQSKEVGDVVGGALDNPFEDDMDGVDFNQAFEGTDDNEEASVKLDLQDDEDHKFPIRENKVTYSRVSKKVDVRRLKKNVWRSINNLIQEHDSRKNREQSSNDSETHTEDESTKELKFSDIIQGISKMYSDDTLKDISTSFCFICLLHLANEHGLQITHTENYNDLIVNYEDLATTQAAS

B2: 50-bp dsDNA (cryo-EM) (dsDNA)
DNA 1: GTTGACAGTGTCGCAACCTGCACAGGCAAGCTGCTGAGTCTGGTGTAGAC
DNA 2: GTCTACACCAGACTCAGCAGCTTGCCTGTGCAGGTTGCGACACTGTCAAC
- binding result [3]: binds
